According to US20110152199A1 (ONCOTHERAPY SCIENCE, published 2011):

Target: T1, HLA-A2 (HLA-A*0201) on cells (human, UniProt P04439 25-302 at identity 0.94))
T1 MHC heavy: not shown
Assay: cell-based or functional assay

IFN-γ production by healthy donor 1-derived CTLs against T2 cells pulsed with the peptide at various concentrations (E/T ratio 5): ≥ 0.2 µg/mL
B1: CDCA1 351-359 (No. 4) peptide (peptide)
peptide: KLATAQFKI
